{"source": "paper PMC2941195", "proteins": {"B1": {"name": "NotC (Aspergillus sp. MF297-2) (protein)", "chain": "MAIEEKSTSAEPGPYDALSRFSSLTGEDDRKWWEHTGPVLEKVMRDSGYELQSQYIYLYFVQQHLIPYLGKFPTRGQDDHRWQSNLTPYKVPYELSWNVSHKVVRISWDPVCDASGTENDAFNKKAIHDCTRQLAELDSTVILDRYRLLHKDLVITDEEEQQLLRRDVLPKSGRGQHNLAVDFQEGGITLKVYFYPYMKFLATGTPIEELFFSAIEKLRIADIDEAVGMLKCFLSPKSDDGKPSVDEKVFPSLLACDLCDPSKSRIKYYVIDKWVKWERIANLWTIGGRRLEDPYCAKGLALLKELWDLLAIPEGDRGDIWPNLVLGQPPTHLMTTIANYTLSPASRFPEPQVYLTTFGLNDMAIIDALTAFYERVGFTDMAKSYKKNVQSYYPNLDLNQTNWVHEAVSFSYRNSKPYLSVYYSPF"}}, "substrate": "C=CC(C)(C)c1[nH]c2cc(O)ccc2c1C[C@@H]1NC(=O)[C@@H]2CCCN2C1=O", "experiment": "Michaelis-Menten kinetics, HPLC product detection", "assay_type": "biochemical, Aspergillus sp. MF297-2", "conditions": "normal prenylation at C-7 with DMAPP, 5 mM MgCl2, 50 mM Tris-Cl pH 7.5"}
{"protein": "B1", "values": [{"measurement": "Km", "result": "2.64 ± 0.33", "unit": "µM"}, {"measurement": "kcat", "result": "1.01 ± 0.0317", "unit": "s⁻¹"}]}
